# Target: HLA-A*02:01 (Homo sapiens, UniProt P04439, D140Y/D185E/D98H/E176V/E277Q/G131W/G231S/I119V/I121R/I166T/I218V/L300P/L318F/N151K/N90K/P208A/P217A/Q86G/Q94H/R138H/R169H/T345S)
# Assay: MHC binding assay (UV-ligand exchange, ELISA of exchange yield)
# Details: binding to HLA-A*02:01, UV-ligand exchange
# Summary of the method: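 ELISA of β2m retained on streptavidin-captured, 100-fold diluted complexes (HRP anti-β2m, TMB, 450 nm) gives the yield. Complexes come from UV-triggered exchange of a photocleavable placeholder peptide for the candidate, which must bind to stop complex dissociation.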
row,Substance,"Peptide exchange (MHC class I binding score, peptide exchange yield)"
1,159 (GLVGNPLPSV; listed as Homo sapiens) [compound 159],“++++” (≥75% = ++++)
2,208 (KISPVTFSV; listed as Homo sapiens) [compound 208],“+++” (≥50 = +++)
3,39 (SVAPNLPAV; listed as Homo sapiens) [compound 39],“+++” (≥50 = +++)
4,343 (SLLEVNEESTV; listed as Homo sapiens) [compound 343],“+++” (≥50 = +++)
5,98 (LIIDQADIYL; listed as Homo sapiens) [compound 98],“+++” (≥50 = +++)
6,205 (SLYPGTETMGL; listed as Homo sapiens) [compound 205],“+++” (≥50 = +++)
7,265 (LLFGGTKTV; listed as Homo sapiens) [compound 265],“++” (≥20% = ++)
8,53 (KMIETDILQKV; listed as Homo sapiens) [compound 53],“++++” (≥75% = ++++)
9,45 (SLWQDIPDV; listed as Homo sapiens) [compound 45],“+++” (≥50 = +++)
10,212 (ALWDQDNLSV; listed as Homo sapiens) [compound 212],“++” (≥20% = ++)
11,258 (ELAERVPAI; listed as Homo sapiens) [compound 258],“++” (≥20% = ++)
12,14 (AAYGGLNEKSFV; listed as Homo sapiens) [compound 14],“+++” (≥50 = +++)
13,301 (FLVEDLVDSL; listed as Homo sapiens) [compound 301],“+++” (≥50 = +++)
14,145 (FLATSGTLAGI; listed as Homo sapiens) [compound 145],“++” (≥20% = ++)
15,331 (KVDTVWVNV; listed as Homo sapiens) [compound 331],“+++” (≥50 = +++)
16,330 (QLALKVEGV; listed as Homo sapiens) [compound 330],“+++” (≥50 = +++)

row,Substance,"Peptide exchange (MHC class I binding score, peptide exchange yield)"
1,129 (GLLDGGVDILL; listed as Homo sapiens) [compound 129],“+++” (≥50 = +++)
2,47 (ILLSVPLLVV; listed as Homo sapiens) [compound 47],“++” (≥20% = ++)
3,322 (TLMTSLPAL; listed as Homo sapiens) [compound 322],“+++” (≥50 = +++)
4,56 (KLYEGIPVLL; listed as Homo sapiens) [compound 56],“++++” (≥75% = ++++)
5,25 (FLPDEPYIKV; listed as Homo sapiens) [compound 25],“+++” (≥50 = +++)
6,170 (RLQETLSAA; listed as Homo sapiens) [compound 170],“+++” (≥50 = +++)
7,281 (ILRESTEEL; listed as Homo sapiens) [compound 281],“+++” (≥50 = +++)
8,55 (SLLDLETLSL; listed as Homo sapiens) [compound 55],“++++” (≥75% = ++++)
9,215 (QLINHLHAV; listed as Homo sapiens) [compound 215],“+++” (≥50 = +++)
10,132 (LLVEQPPLAGV; listed as Homo sapiens) [compound 132],“+++” (≥50 = +++)
11,111 (YVWGFYPAEV; listed as Homo sapiens) [compound 111],“+++” (≥50 = +++)
12,104 (STMEQNFLL; listed as Homo sapiens) [compound 104],“++++” (≥75% = ++++)
13,27 (ILADIVISA; listed as Homo sapiens) [compound 27],“+++” (≥50 = +++)
14,52 (FLLAHGLGFLL; listed as Homo sapiens) [compound 52],“++++” (≥75% = ++++)
15,227 (ALMNTLLYL; listed as Homo sapiens) [compound 227],“++” (≥20% = ++)
16,110 (FLSQVDFEL; listed as Homo sapiens) [compound 110],“+++” (≥50 = +++)

# Continued, values first:
row,"Peptide exchange (MHC class I binding score, peptide exchange yield)",Substance
1,“+++” (≥50 = +++),560 (ALWDIETGQQTTT; listed as Homo sapiens) [compound 560]
2,“+++” (≥50 = +++),486 (AVMESIQGV; listed as Homo sapiens) [compound 486]
3,“++” (≥20% = ++),565 (ALQETPTSV; listed as Homo sapiens) [compound 565]
4,“+++” (≥50 = +++),606 (ALWETEVYI; listed as Homo sapiens) [compound 606]
5,“+++” (≥50 = +++),456 (LLIGHLERV; listed as Homo sapiens) [compound 456]
6,“+++” (≥50 = +++),436 (HLAEVSAEV; listed as Homo sapiens) [compound 436]
7,“+++” (≥50 = +++),487 (LLINSVFHV; listed as Homo sapiens) [compound 487]
8,“+++” (≥50 = +++),521 (MLLTKLPTI; listed as Homo sapiens) [compound 521]
9,“++++” (≥75% = ++++),438 (KLLPLAGLYL; listed as Homo sapiens) [compound 438]
10,“+++” (≥50 = +++),539 (ALFDAQAQV; listed as Homo sapiens) [compound 539]
11,“+++” (≥50 = +++),485 (NVPDSFNEV; listed as Homo sapiens) [compound 485]
12,“+++” (≥50 = +++),578 (FLDPGGPMMKL; listed as Homo sapiens) [compound 578]
13,“+++” (≥50 = +++),572 (ALADLIEKELSV; listed as Homo sapiens) [compound 572]
14,“+++” (≥50 = +++),610 (LLAPTPYIIGV; listed as Homo sapiens) [compound 610]
15,“+++” (≥50 = +++),525 (VLLEAGEGLVTI; listed as Homo sapiens) [compound 525]
16,“+++” (≥50 = +++),530 (VMYADIGGMDI; listed as Homo sapiens) [compound 530]
17,“++++” (≥75% = ++++),585 (ALWDLAADKQTL; listed as Homo sapiens) [compound 585]
18,“++” (≥20% = ++),516 (AVGPASILKEV; listed as Homo sapiens) [compound 516]

row,"Peptide exchange (MHC class I binding score, peptide exchange yield)",Substance
1,“+++” (≥50 = +++),469 (YLASDEITTV; listed as Homo sapiens) [compound 469]
2,“+++” (≥50 = +++),551 (KLYESLLPFA; listed as Homo sapiens) [compound 551]
3,“+++” (≥50 = +++),450 (FMIDASVHPTL; listed as Homo sapiens) [compound 450]
4,“++++” (≥75% = ++++),466 (VLIANLEKL; listed as Homo sapiens) [compound 466]
5,“++” (≥20% = ++),412 (YLDDLNEGVYI; listed as Homo sapiens) [compound 412]
6,“+++” (≥50 = +++),617 (ALMYESEKVGV; listed as Homo sapiens) [compound 617]
7,“+++” (≥50 = +++),613 (RLLPPGAVVAV; listed as Homo sapiens) [compound 613]
8,“+++” (≥50 = +++),591 (SMAELDIKL; listed as Homo sapiens) [compound 591]
9,“+++” (≥50 = +++),623 (YLVEDIQHI; listed as Homo sapiens) [compound 623]
10,“+++” (≥50 = +++),554 (LLMPSSEDLLL; listed as Homo sapiens) [compound 554]
11,“+++” (≥50 = +++),407 (YLMDLINFL; listed as Homo sapiens) [compound 407]
12,“+++” (≥50 = +++),383 (ALLELENSVTL; listed as Homo sapiens) [compound 383]
13,“++” (≥20% = ++),376 (AMFESSQNVLL; listed as Homo sapiens) [compound 376]
14,“++” (≥20% = ++),355 (SIQQSIERLLV; listed as Homo sapiens) [compound 355]
15,“+++” (≥50 = +++),502 (RLLAQVPGL; listed as Homo sapiens) [compound 502]
16,“++” (≥20% = ++),458 (SLIDKLYNI; listed as Homo sapiens) [compound 458]
17,“+++” (≥50 = +++),542 (RVWDISTVSSV; listed as Homo sapiens) [compound 542]

# From patent publication US10047131B2, “Peptides and combination of peptides for use in immunotherapy against ovarian cancer and other cancers” (immatics biotechnologies GmbH, priority 2015, dated 2018)
